Reference: patent US6008193A, “Methods of using human von Willebrand factor GPIb binding domain polypeptides” (Bio-Technology General Corp., priority 1995, dated 1999)
Where “and” joins values, the source holds several entries; their conditions need not be identical. Identical values can stand only once.

Assays:
[1] = molecular target: platelet glycoprotein Ib (GPIb) (human) (UniProt P07359)
[2] = molecular target: platelet glycoprotein Ib (GPIb) (human) (UniProt P07359); remark: listed apart in the source
[3] = molecular target: platelet glycoprotein Ib (GPIb) (human) (UniProt P07359); remark: listed apart in the source
[4] = molecular target: platelet glycoprotein Ib (GPIb) (human) (UniProt P07359); remark: listed apart in the source
[5] = molecular target: platelet glycoprotein Ib (GPIb) (human) (UniProt P07359); assay: platelet adhesion to immobilized VCL against immobilized albumin in a laminar flow cell
[6] = molecular target: platelet glycoprotein Ib (GPIb) (human) (UniProt P07359); remark: listed apart in the source
[7] = molecular target: platelet glycoprotein Ib (GPIb) (human) (UniProt P07359); remark: listed apart in the source
[8] = molecular target: platelet glycoprotein Ib (GPIb) (human) (UniProt P07359); assay: platelet adhesion to immobilized VCL on a glass cover slip in a laminar flow cell
[9] = molecular target: platelet glycoprotein Ib (GPIb) (human) (UniProt P07359); remark: listed apart in the source
[10] = molecular target: platelet glycoprotein Ib (GPIb) (human) (UniProt P07359); remark: listed apart in the source
[11] = molecular target: platelet glycoprotein Ib (GPIb) (human) (UniProt P07359); remark: listed apart in the source
[12] = molecular target: platelet glycoprotein Ib (GPIb) (human) (UniProt P07359); remark: listed apart in the source
[13] = molecular target: platelet glycoprotein Ib (GPIb) (human) (UniProt P07359); remark: listed apart in the source
[14] = system: rat platelet rich plasma (PRP); assay: vWF-dependent platelet aggregation assay in platelet rich plasma (PRP); format: cell-based; settings: ristocetin up to 5.0 mg/ml, no additional agent
Protocol: This is a standardized von Willebrand Factor (vWF)-dependent aggregation assay using human or rat platelet rich plasma (PRP). The addition of various concentrations of unfractionated Bothrops jararaca venom (BJV), which includes botrocetin and an additional thrombin-like component, or ristocetin results in an aggregatory response in the absence of any additional agent. Using ristocetin (1.5 mg/ml) as the agonist 43 μg/ml VCL abolished the aggregation of human PRP.

Substance	% Inhibition of Platelet Aggregation (asialo-vWF induced, in PRP) [1]	platelet adhesion to endothelial cell extracellular matrix (ECM) in a laminar flow cell [2]	Ristocetin induced platelet aggregation (RIPA) [3]	platelet adhesion to immobilized fibronectin in a laminar flow cell [4]	fold of adhesion to albumin [5]	platelet deposition on damaged porcine aorta perfused ex vivo with normal human blood [6]	platelet adhesion to immobilized vWF in a laminar flow cell [7]	percent coverage of the test surface by platelets [8]	% Inhibition of Platelet Aggregation (ristocetin induced, washed human platelets with intact vWF) [9]	Dissolution of preformed aggregates (made by RIPA) [10]	IC50, Asialo vWF induced platelet aggregation [10]	IC50, Platelet deposition under conditions of flow (everted denuded human umbilical artery, whole human blood) [10]	IC50, Ristocetin induced platelet aggregation [10]	IC50, Thrombin induced platelet aggregation [10]	platelet adhesion to immobilized collagen (type I) in a laminar flow cell [11]	platelet adhesion to immobilized fibrinogen in a laminar flow cell [12]	IC50, platelet adhesion to ECM at a shear rate of 1300 s^-1 [13]	Aggregation of rat PRP induced by ristocetin [14]
VCL, a vWF GPIb binding domain polypeptide (methionine plus amino acids 504-728 of mature human vWF) (ligand)	76%	70 % inhibition	100 % inhibition	80 % inhibition	10 fold	60 % reduction	25 % inhibition	< 5 % coverage	100%	0.5 µM VCL	0.15 µM VCL	1 µM VCL	0.2 µM VCL and 0.3 µM VCL	0.3 µM VCL	50 % inhibition	75 % inhibition	800 nM	–
ristocetin	–	–	–	–	–	–	–	–	–	–	–	–	–	–	–	–	–	did not cause measurable aggregation
